According to patent US20050251879A1 (published 2005):

What was measured:
[1] = molecular target: Tobacco vein mottling virus capsid protein (TVMV CP), Gal4 binding domain fusion (Tobacco vein mottling virus, UniProt P04386 1-147; P09814 2759-3023); assay: yeast two-hybrid, HIS3 and lacZ reporters
[2] = molecular target: T1, Potato virus Y capsid protein (PVY CP) fused with the Gal4 binding domain (Potato virus Y (N strain), UniProt P04386 1-147; P18247 2797-3063); assay: yeast two-hybrid, lacZ activity
T1 construct: also called pGBT9-PVY CP; PVY envelope protein

[3] = molecular target: T1, Potato virus Y capsid protein (PVY CP) …; assay: yeast two-hybrid, lacZ reporter
[4] = molecular target: T2, Gal4 binding domain alone (pGBT1) (UniProt P04386 1-147); assay: yeast two-hybrid, lacZ activity
T2 construct: Control

[5] = molecular target: T3, SNF1 fused with the Gal4 binding domain (pBD-SNF1) (UniProt P04386 1-147; P06782 1-633); assay: yeast two-hybrid, lacZ activity
T3 construct: Control plasmid, bought

B1: NtCPIP2a (DnaJ-like protein from Nicotiana tabacum), Gal4 activation domain fusion (other)
chain: MGLDYYNVLKVSRNASEEDLKRSYKRLAMKWHPDKNSQNKKEAEAKFKQISEAYDVLSDPQKRQIYDVYGDDALKSGQFASASPTSAGSNARGFRFNTRDAEAIFAEFFGGSGSNSGAGVGRKAAPVENKLPCSLEELYKGSRRKMKISRILLDDSGKPTTVEEVLAIHIKPGWKKGTKITFPEKGNYEPGATPGDLIFVIDEKPHAVFKRDGNDLEINQKISLLDALTGKTISLITLDGRELTIPITDIVKPGHEHIIPNEGMPISKERGKKGNLKIKFDIKFPSRLSADQKSDIRRVLCRSAD
Question: Does B1 bind [1]?
Answer: no binding

B2: NtCPIP2b (DnaJ-like protein from Nicotiana tabacum), Gal4 activation domain fusion (other)
chain: MGLDYYDVLKVSRNASEEDLKRSYKRLAMKWHPDKNSQNKKEAEAKFKQISEAYDVLSDPQKRQIYDVYGDDALKSGQFASASPTSAGSNGRGFRFNTRDAEAIFAEFFGGSDSNSAAGVGRKAAPVENKLPCSLEELYKGSRRKMKISRILLDDSGKPTTVEEVLAIHIKPGWKKGTKITFPEKGNYEPGATPGDLIFVIDEKPHAVFKRDGNDLVINQKISLLDALTGKTISLITLDGRELTIPITDVVKPGHEHIIPNEGMPISKERGKKGNLKIKFDIKFPSRLSADQKSDIRRVLCRNSD
Question: Does B2 bind [1]?
Answer: no binding

B3: SNF4 fused with the Gal4 activation domain (pAD-SNF4) (other)
chain: MKPTQDSQEKVSIEQQLAVESIRKFLNSKTSYDVLPVSYRLIVLDTSLLVKKSLNVLLQNSIVSAPLWDSKTSRFAGLLTTTDFINVIQYYFSNPDKFELVDKLQLDGLKDIERALGVDQLDTASIHPSRPLFEACLKMLESRSGRIPLIDQDEETHREIVVSVLTQYRILKFVALNCRETHFLKIPIGDLNIITQDNMKSCQMTTPVIDVIQMLTQGRVSSVPIIDENGYLINVYEAYDVLGLIKGGIYNDLSLSVGEALMRRSDDFEGVYTCTKNDKLSTIMDNIRKARVHRFFVVDDVGRLVGVLTLSDILKYILLGSN
Question: Does B3 bind [2]?
Answer: no binding

B4: NtCPIP2a Δ119N, Gal4 activation domain fusion (other)
chain: VGRKAAPVENKLPCSLEELYKGSRRKMKISRILLDDSGKPTTVEEVLAIHIKPGWKKGTKITFPEKGNYEPGATPGDLIFVIDEKPHAVFKRDGNDLEINQKISLLDALTGKTISLITLDGRELTIPITDIVKPGHEHIIPNEGMPISKERGKKGNLKIKFDIKFPSRLSADQKSDIRRVLCRSAD
Question: Does B4 bind [3]?
Answer: no binding

B5: NtCPIP1 (DnaJ-like protein from Nicotiana tabacum) fused with the Gal4 activation domain (other)
chain: MGVDYYKILKVSRNASEEDLKKSYKRLAMKWHPDKNSEKEAEAKFKQISEAYDVLSDPQKRQIYDIYGDEALKSGQFDPSSPMNGNGRGFKFDSRDAEDIFAEFFGGSDGYSRSPTGGTVRIRKPAPVENKLPCSLEELYKGSKRKMKISRIVLDVTGKPTTIEEVLAIHIKPGWKKGTKITFPEKGNHEPGAAPGDLIFVIDEKPHDVFKRDGNDLVINQKISLVDALSGKIINLATLDGRELTIPITDVVKPGHEQIIADEGMPISKEPGKKGNLRIKFEVKFPSRLSSDQKLDIRRVLGRTVD
notes: also called pAD-CPIP1
Question: Does B5 bind [4]?
Answer: no binding

Question: Does B5 bind [5]?
Answer: no binding

Question: Does B5 bind [1]?
Answer: no binding

B6: NtCPIP2a Δ94N, Gal4 activation domain fusion (other)
chain: RFNTRDAEAIFAEFFGGSGSNSGAGVGRKAAPVENKLPCSLEELYKGSRRKMKISRILLDDSGKPTTVEEVLAIHIKPGWKKGTKITFPEKGNYEPGATPGDLIFVIDEKPHAVFKRDGNDLEINQKISLLDALTGKTISLITLDGRELTIPITDIVKPGHEHIIPNEGMPISKERGKKGNLKIKFDIKFPSRLSADQKSDIRRVLCRSAD
Question: Does B6 bind [3]?
Answer: no binding

B7: NtCPIP1 Δ115N, Gal4 activation domain fusion (other)
chain: TGGTVRIRKPAPVENKLPCSLEELYKGSKRKMKISRIVLDVTGKPTTIEEVLAIHIKPGWKKGTKITFPEKGNHEPGAAPGDLIFVIDEKPHDVFKRDGNDLVINQKISLVDALSGKIINLATLDGRELTIPITDVVKPGHEQIIADEGMPISKEPGKKGNLRIKFEVKFPSRLSSDQKLDIRRVLGRTVD
Question: Does B7 bind [3]?
Answer: no binding
